B1: XBR1-402 chimeric antigen receptor with short spacer, on CD8+ T cells (protein, part only; not given: scFv linker, spacer, signaling parts, not shown: large carriers)
scFv, part: QEQQKESGGGLFKPTDTLTLTCTASGFDISSYYMSWVRQAPGNGLEWIGAIGISGNAYYASWAKSRSTITRNTNLNTVTLKMTSLTAADTATYFCARDHPTYGMDLWGPGTLVTVSSSYELTQLPSVSVSLGQTARITCEGNNIGSKAVHWYQQKPGLAPGLLIYDDDERPSGVPDRFSGSNSGDTATLTISGAQAGDEADYYCQVWDSSAYVFGGGTQLTVTG
B2: XBR1-402 chimeric antigen receptor with long spacer, on CD8+ T cells (protein, part only; not given: scFv linker, spacer, signaling parts, not shown: large carriers)
scFv, part: B1 scFv, part

Molecular target: ROR1 (reagent by which anti-ROR1 recognition of CAR-T cells was read; form not stated)
Sequence (Q01973 24-403): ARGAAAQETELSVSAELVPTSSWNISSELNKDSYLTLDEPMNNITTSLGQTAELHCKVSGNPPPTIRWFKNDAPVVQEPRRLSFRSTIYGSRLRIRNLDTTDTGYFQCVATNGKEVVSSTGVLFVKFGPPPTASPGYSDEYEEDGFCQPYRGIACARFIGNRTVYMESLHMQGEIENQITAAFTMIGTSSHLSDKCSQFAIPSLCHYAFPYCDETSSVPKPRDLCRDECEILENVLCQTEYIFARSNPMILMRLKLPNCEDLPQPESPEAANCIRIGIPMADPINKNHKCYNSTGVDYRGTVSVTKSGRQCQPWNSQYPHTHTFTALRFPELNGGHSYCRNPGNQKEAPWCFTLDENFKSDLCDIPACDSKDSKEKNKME
Assay: FACS of EGFR+ transduced T cells

Binder	percent of CAR-T cells with anti-ROR1 recognition
B1	> 90%
B2	> 90%
